This is an account of results in article PMC7297996, “Alzheimer’s disease-related dysregulation of mRNA translation causes key pathological features with ageing” (Translational Psychiatry, 2020).

This data set deals with the molecule itself. As to the kind of experiment: native gel or EMSA; NativePAGE (Invitrogen) of the synthetic Aβ1-42 preparation, detected with antibody 4G8; guanidine hydrochloride (1:1) used to break down oligomers. (In general: Mobility shift assays separate free from complexed probe on a gel.)

B1: synthetic rat Aβ1-42 peptide (peptide, UniProt P08592 672-713, looked up)
peptide: DAEFGHDSGFEVRHQKLVFFAEDVGSNKGAIIGLMVGGVVIA
notes: amyloid-beta 1-42, cut product of the amyloid precursor protein (APP), rat; Oligomer preparation: 100 uM stock in 200 mM HEPES pH 8.5, agitated for 30 min at room temperature; also called amyloid-β 1-42; rodent Aβ_(1-42); source: synthetic peptide; bought: Calbiochem
As for B1, the binding result is given as “binds”.
